From patent publication US20200247894A1 (Regeneron, published 2020)

T1: Macaca fascicularis IL2Rγ extracellular domain expressed with a C-terminal myc-myc-hexahistidine tag (Macaca fascicularis)
T1 construct: whole entry is the tagged construct; also called mfIL-2Rg-MMH
T1 chain: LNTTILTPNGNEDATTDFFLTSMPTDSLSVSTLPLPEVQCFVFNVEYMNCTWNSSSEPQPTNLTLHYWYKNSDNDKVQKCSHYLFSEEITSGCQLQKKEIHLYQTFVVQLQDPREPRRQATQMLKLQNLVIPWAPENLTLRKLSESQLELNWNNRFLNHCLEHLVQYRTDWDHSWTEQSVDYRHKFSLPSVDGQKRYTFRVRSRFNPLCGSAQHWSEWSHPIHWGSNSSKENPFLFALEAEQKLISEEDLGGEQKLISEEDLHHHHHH

T2: Rat IL2Rγ extracellular domain expressed with a C-terminal myc-myc-hexahistidine tag (rat)
T2 construct: whole entry is the tagged construct; also called rIL-2Rg-MMH; rat IL-2Rg-MMH
T2 chain: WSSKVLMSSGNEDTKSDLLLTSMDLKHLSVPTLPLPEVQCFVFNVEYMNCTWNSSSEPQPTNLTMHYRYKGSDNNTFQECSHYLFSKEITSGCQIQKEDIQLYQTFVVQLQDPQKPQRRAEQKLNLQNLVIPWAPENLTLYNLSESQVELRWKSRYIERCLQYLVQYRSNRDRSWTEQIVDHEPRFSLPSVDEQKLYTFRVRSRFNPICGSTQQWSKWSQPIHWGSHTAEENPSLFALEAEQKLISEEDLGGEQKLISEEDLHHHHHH

T3: Mouse IL2Rγ extracellular domain expressed with a C-terminal myc-myc-hexahistidine tag (mouse)
T3 construct: whole entry is the tagged construct; also called mIL-2Rg-MMH
T3 chain: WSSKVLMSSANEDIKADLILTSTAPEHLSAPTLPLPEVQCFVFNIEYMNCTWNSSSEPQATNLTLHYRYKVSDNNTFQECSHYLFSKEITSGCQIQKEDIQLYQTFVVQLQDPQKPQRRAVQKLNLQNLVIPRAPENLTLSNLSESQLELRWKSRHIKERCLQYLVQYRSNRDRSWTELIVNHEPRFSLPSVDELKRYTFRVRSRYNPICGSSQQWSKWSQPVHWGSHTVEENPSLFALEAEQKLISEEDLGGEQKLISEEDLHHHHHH

T4: Human IL2Rγ extracellular domain expressed with a C-terminal mouse IgG2a Fc tag (human)
T4 construct: whole entry is the Fc-fused construct; also called hIL-2Rg-mFc
T4 chain: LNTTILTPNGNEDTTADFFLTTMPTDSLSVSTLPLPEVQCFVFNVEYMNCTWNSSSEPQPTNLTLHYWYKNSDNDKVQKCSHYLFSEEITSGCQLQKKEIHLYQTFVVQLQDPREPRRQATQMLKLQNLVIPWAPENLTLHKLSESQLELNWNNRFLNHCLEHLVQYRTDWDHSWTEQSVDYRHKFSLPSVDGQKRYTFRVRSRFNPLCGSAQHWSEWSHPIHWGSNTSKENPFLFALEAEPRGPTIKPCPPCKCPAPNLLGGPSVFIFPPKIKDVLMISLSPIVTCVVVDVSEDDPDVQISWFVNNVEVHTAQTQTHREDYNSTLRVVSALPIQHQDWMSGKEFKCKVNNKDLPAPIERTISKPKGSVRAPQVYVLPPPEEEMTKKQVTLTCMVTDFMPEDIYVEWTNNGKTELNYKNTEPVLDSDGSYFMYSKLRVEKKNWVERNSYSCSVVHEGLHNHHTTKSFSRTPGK


Assays:
[1] = biological target: T1, Macaca fascicularis IL2Rγ extracellular …; test: SPR Biacore 4000, anti-hFc-captured mAb, 37 C
Protocol: (§1) Equilibrium dissociation constants (KD values) for IL-2Rγ binding to purified anti-IL2Rγ monoclonal antibodies were determined using a Biacore 4000 instrument equipped with a real-time surface plasmon resonance biosensor. All binding studies were performed in 10 mM HEPES, 150 mM NaCl, 3 mM EDTA, and 0.05% v/v Surfactant Tween-20, pH 7.4 (HBS-ET) running buffer at 25° C. and 37° C. The Biacore sensor surface was first derivatized by amine coupling with a monoclonal mouse anti-human Fc antibody (GE, # BR-1008-39) to capture anti-IL2Rγ monoclonal antibodies.
(§2) The dissociation of monoclonal antibody bound IL2Rγ reagents were monitored for 8-10 minutes in HBS-ET running buffer. Kinetic association (kₐ) and dissociation (kd) rate constants were determined by fitting the real-time sensorgrams to a 1:1 binding model using Scrubber 2.0c curve fitting software. Binding dissociation equilibrium constants (KD) and dissociative half-lives (t_{1/2}) were calculated from the kinetic rate constants as: […]

[2] = biological target: T2, Rat IL2Rγ extracellular domain …; test: SPR Biacore 4000, anti-hFc-captured mAb, 37 C
Protocol: as §1, §2

[3] = biological target: T3, Mouse IL2Rγ extracellular domain …; test: SPR Biacore 4000, anti-hFc-captured mAb, 37 C
Protocol: as §1, §2

[4] = biological target: T4, Human IL2Rγ extracellular domain …; test: SPR Biacore 4000, anti-hFc-captured mAb, 37 C
Protocol: as §1, §2

[5] = biological target: T2, Rat IL2Rγ extracellular domain …; test: SPR Biacore 4000, anti-hFc-captured mAb, 25 C
Protocol: as §1, §2

[6] = biological target: T3, Mouse IL2Rγ extracellular domain …; test: SPR Biacore 4000, anti-hFc-captured mAb, 25 C
Protocol: as §1, §2

[7] = biological target: T4, Human IL2Rγ extracellular domain …; test: SPR Biacore 4000, anti-hFc-captured mAb, 25 C
Protocol: as §1, §2

| Binder | 100 nM Ag Bound [1] [RU] | Kd [1] [nM] | koff [1] [s⁻¹] | kon [1] [M⁻¹ s⁻¹] | t1/2 [1] [h] | 100 nM Ag Bound [2] [RU] | 100 nM Ag Bound [3] [RU] | 50 nM Ag Bound [4] [RU] | Kd [4] [nM] | koff [4] [s⁻¹] | kon [4] [M⁻¹ s⁻¹] | t1/2 [4] [h] | 100 nM Ag Bound [5] [RU] | binding result [5] | 100 nM Ag Bound [6] [RU] | 50 nM Ag Bound [7] [RU] | Kd [7] [nM] | koff [7] [s⁻¹] | kon [7] [M⁻¹ s⁻¹] | t1/2 [7] [h] | also measured |
| --- | --- | --- | --- | --- | --- | --- | --- | --- | --- | --- | --- | --- | --- | --- | --- | --- | --- | --- | --- | --- | --- |
| H4H12886P (antibody, human IgG4 S228P, kappa, V domains shown, fully human anti-IL2Rgamma mAb, human IgG4 Fc) VH: EVQLVESGGGLVKPGGSLRLSCAASGFTFSTAWMSWVRQSPGRGLEWVGRMKSKTDGGTTFYAAPVKGRFTISRDDSKNTLYLQMNSLKTEDTAVYYCTTGLVPAFYKYYGVDVWGQGTTVTVSS VL: DIQMTQSPSSLSASVGDRITITCQASQDITNYLNWYQQKPGKAPNLLIYDASNLVTGVPSRFSGSGSGTDFTFTILSLQPEDIATYYCQQYDSLLTFGPGTKVDIKR | 47 | 17.7 | 0.000846 | 47800 | 0.233 | 4 | -2 | 19 | 12.8 | 9.09e-05 | 7080 | 2.12 | 3 | no binding (tested: 100 nM) | 2 | 23 | 1.26 | 6.7e-05 | 53400 | 2.87 |  |
| H4H12924P2 (antibody, human IgG4 S228P, kappa, V domains shown, fully human anti-IL2Rgamma mAb, human IgG4 Fc) VH: EVQLVESGGGLVQPGRSLRLSCAASGFTLEDYAMHWVRQAPGKGLEWVSGISWNRGSTGYADSVKGRFTISRDNAKNSLYLQMTSLRAEDTALYYCAKGFYSMDVWGQGTTVTVSS VL: not shown | 24 | 20.7 | 0.0137 | 662000 | 0.0133 | 3 | -1 | 13 | 12.2 | 0.000183 | 15000 | 1.05 | 3 | no binding (tested: 100 nM) | 2 | 28 | 5.66 | 0.000411 | 72600 | 0.467 |  |
| H4H12913P2 (antibody, human IgG4 S228P, kappa, V domains shown, fully human anti-IL2Rgamma mAb, human IgG4 Fc) VH: EVQLVESGGGVVRPGGSLRLSCAASGFTFDDYGMSWVRQAPGKGLEWISSINRNGGSADYADSVKGRFTISRDNAKNSLFLQMSSLRAEDTALYHCASGEFRFDYWGQGTLVTVSS VL: not shown | 20 | 37.3 | 0.00296 | 79300 | 0.0667 | 3 | 0 | 9 | 2.53 | 0.000185 | 73200 | 1.03 | 1 | no binding (tested: 100 nM) | 1 | 12 | 1.3 | 5.34e-05 | 41200 | 3.6 | binding result [6]: no binding (tested: 100 nM) |

Stronger by Kd [1], values ahead:

| 100 nM Ag Bound [1] [RU] | Kd [1] [nM] | koff [1] [s⁻¹] | kon [1] [M⁻¹ s⁻¹] | t1/2 [1] [h] | 100 nM Ag Bound [2] [RU] | 100 nM Ag Bound [3] [RU] | 50 nM Ag Bound [4] [RU] | Kd [4] [nM] | koff [4] [s⁻¹] | kon [4] [M⁻¹ s⁻¹] | t1/2 [4] [h] | 100 nM Ag Bound [5] [RU] | binding result [5] | 100 nM Ag Bound [6] [RU] | 50 nM Ag Bound [7] [RU] | Kd [7] [nM] | koff [7] [s⁻¹] | kon [7] [M⁻¹ s⁻¹] | t1/2 [7] [h] | Binder | also measured |
| --- | --- | --- | --- | --- | --- | --- | --- | --- | --- | --- | --- | --- | --- | --- | --- | --- | --- | --- | --- | --- | --- |
| 115 | 5.5 | 0.000932 | 169000 | 0.2 | 5 | 5 | 70 | 1.29 | 0.000187 | 144000 | 1.03 | 3 | no binding (tested: 100 nM) | 4 | 38 | 0.996 | 0.000116 | 117000 | 1.65 | H4H13538P (antibody, human IgG4 S228P, kappa, V domains shown, fully human anti-IL2Rgamma mAb, human IgG4 Fc) VH: EVQLVESGGGLVQPGGSLGLSCAASGFTFSNYAMSWVRQAPGKGLEWVSAVSGGGGGTYYADSVKGRFTISRDNSKNTVLLQMNSLRAEDTAVYYCARGRTGGLDYWGPGTLVTVSS VL: DVVMTQSPLSLPVIFGQPASISCRSSQSLVDSDGNTYLNWLQQRPGQSPRRLIYEVSNRDSGVPDRFSGSGSGTDFTLTISRVEAEDVGIYYCMQGTRWPPTFGGGTKVEIKR | binding result [6]: no binding (tested: 100 nM) |
| 59 | 16.1 | 0.00321 | 200000 | 0.0667 | 4 | 1 | 85 | 0.0554 | 2.69e-05 | 486000 | 7.15 | 4 | no binding (tested: 100 nM) | 2 | 112 | 0.113 | 4.02e-05 | 355000 | 4.78 | H4H12884P (antibody, human IgG4 S228P, kappa, V domains shown, fully human anti-IL2Rgamma mAb, human IgG4 Fc) VH: QVQLQESGPGLVKPSQTLSLTCTVSGGSISSGGYYWSWIRQHPGKGLEWIGFIYYSGKTYYNPSLKSRLTISVDTSKSQFSLKLRSVTAADTAVYYCARLGYTNSAGWFDPWGQGTLVTVSS VL: DIQMTQSPSSLSASVGDRVTITCRASQSISSYLNWYQQKPGKAPNLLIYAASSLQSGVPSRFSGSGSGTDFTLTISSLQPEDLATYYCQQSYTTPFTFGPGTKVDIKR | binding result [6]: no binding (tested: 100 nM) |
| 55 | 12.7 | 0.00261 | 206000 | 0.0667 | 1 | -1 | 81 | 0.0505 | 2.39e-05 | 473000 | 8.07 | 1 | no binding (tested: 100 nM) | 0 | 103 | 0.144 | 5.22e-05 | 363000 | 3.68 | H4H12871P (antibody, human IgG4 S228P, kappa, V domains shown, fully human anti-IL2Rgamma mAb, human IgG4 Fc; also called REGN9434) VH: QVQLQESGPGLVKPSQTLSLTCTVSGGSITSGGYYWSWIRQYPGQGLEWIGYIYYSGKTYYNPSFTSRITISVDTSKKQFSLKMSSVTAADTAVYYCARAGFTSSNGWFDPWGQGTLVTVSS VL: DIQMTQSPSSLSASVGDRVTITCRASQNIRSYLNWYQQKPGKAPKLLIYSASSLQSGVPSRFSGSGSGTDFTLTISSLQPEDFPTYYCQQTYSSPWTFGPGTKVEIKR |  |
